According to patent publication US20170313754A1 (PROTAGONIST THERAPEUTICS, published 2017):
Numbered stars: 1 amine (or outer) side, 2 acyl side, 3 side chain; on linkers, the order of the positions; unused ones are H or OH. Bridge positions count the residues as written; N and C are the ends. Square brackets hold non-standard residues; d marks the D form. Ends that are not written are not given here. * marks the point of attachment. Ida = iminodiacetic acid, O=C(CN(CC(=O)[*:3])[*:1])[*:2]; NMeW = CN[C@@H](Cc1c[nH]c2ccccc12)C(=O)O; β3hF = N[C@H](CC(=O)O)Cc1ccccc1; β3hP = O=C(O)C[C@@H]1CCCN1; Isovaleryl = CC(C)CC(=O)*; Sar = CNCC(=O)O

T1: human ferroportin (SLC40A1) fused in frame with GFP, stably expressed in HEK293 cells (human, UniProt Q9NP59 1-571)
T1 sequence (looked up): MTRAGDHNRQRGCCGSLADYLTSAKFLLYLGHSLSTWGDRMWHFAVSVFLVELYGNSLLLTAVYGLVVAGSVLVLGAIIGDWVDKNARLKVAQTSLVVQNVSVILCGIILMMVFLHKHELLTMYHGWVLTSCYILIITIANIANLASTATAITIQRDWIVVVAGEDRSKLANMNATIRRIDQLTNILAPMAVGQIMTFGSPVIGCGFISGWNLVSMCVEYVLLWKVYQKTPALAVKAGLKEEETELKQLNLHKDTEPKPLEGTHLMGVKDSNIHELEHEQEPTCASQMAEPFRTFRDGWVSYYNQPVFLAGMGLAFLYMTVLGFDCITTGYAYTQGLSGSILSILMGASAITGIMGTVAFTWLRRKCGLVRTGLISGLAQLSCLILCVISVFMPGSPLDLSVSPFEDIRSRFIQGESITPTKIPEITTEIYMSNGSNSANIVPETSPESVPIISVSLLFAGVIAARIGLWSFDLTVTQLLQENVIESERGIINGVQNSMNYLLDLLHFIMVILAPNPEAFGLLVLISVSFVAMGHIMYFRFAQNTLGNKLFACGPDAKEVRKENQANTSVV

B1: Isovaleric acid-DTHFPCIIF-[Sarc]-PHSKG-[N-MeTrp]-VC-NH2 (peptide)
peptide: DTHFPCIIFXPHSKGWVC
modifications: N-terminal isovaleric acid; Sarc at position 10; N-MeTrp at position 16; C-terminal amide
B2: Hy-DTHFPCIIFGPRSKGWVAC-NH2 (peptide)
peptide: H-DTHFPCIIFGPRSKGWVAC-NH2
modifications: not fully specified (bridges); printed as Hy-DTHFPCIIFGPRSKGWVAC-NH2; cysteine pairing not given here
B3: Hy-DTHFPCIIFGPRSKGWVACY-NH2 (peptide)
peptide: H-DTHFPCIIFGPRSKGWVACY-NH2
modifications: not fully specified (bridges); printed as Hy-DTHFPCIIFGPRSKGWVACY-NH2; cysteine pairing not given here
B4: Hy-DTHFPCIIFGPRSKGWAVCYW-NH2 (peptide)
peptide: H-DTHFPCIIFGPRSKGWAVCYW-NH2
modifications: not fully specified (bridges); printed as Hy-DTHFPCIIFGPRSKGWAVCYW-NH2; cysteine pairing not given here
B5: Isovaleric acid-DTHFPCIIF-[Sarc]-PRSKG-[N-MeTrp]-VC-NH2 (peptide)
peptide: DTHFPCIIFXPRSKGWVC
modifications: N-terminal isovaleric acid; Sarc at position 10; N-MeTrp at position 16; C-terminal amide
B6: Hy-DTHFPCIIFGPRSRGHVCK-NH2 (peptide)
peptide: H-DTHFPCIIFGPRSRGHVCK-NH2
modifications: not fully specified (bridges); printed as Hy-DTHFPCIIFGPRSRGHVCK-NH2; cysteine pairing not given here

Target: T1, human ferroportin (SLC40A1) fused in …
Test: cell-based or functional assay

| Potency EC50 (nM), ferroportin-GFP internalization/degradation | Potency: percent at the stated concentration, ferroportin-GFP internalization/degradation | Binder |
| --- | --- | --- |
| > 1000 nM | – | H-DTHFPCIIFAC-NH2 (disulfide 6-11 (inferred)) [Hy-DTHFPCIIFAC-NH2] |
| – | 31 % at 10 uM | H-DTHFPCRF-NH2 [Hy-DTHFPCRF-NH2] |
| 10 nM | – | Isovaleryl-DTHFPCIIFEPRSKFWVCK-NH2 (disulfide 6-18 (inferred)) [Isovaleric acid-DTHFPCIIFEPRSKFWVCK-NH2] |
| 46 nM | – | Isovaleryl-DTHFPCIKFKPHSKEWVCE-NH2 (disulfide 6-18 (inferred)) [Isovaleric acid-DTHFPCIKFKPHSKEWVCE-NH2] |
| 19 nM | – | Isovaleryl-DTHFPCIIFEPRSKEWVCK-NH2 (disulfide 6-18 (inferred)) [Isovaleric acid-DTHFPCIIFEPRSKEWVCK-NH2] |
| 9 nM | – | B1 |
| > 10000 nM | – | H-DTHICIAIF-NH2 [Hy-DTHICIAIF-NH2] |
| 46 nM | – | Isovaleryl-DTHFPCIKFEPRSKEWVCK-OH (not fully specified (bridges); cysteine pairing not given here) [Isovaleric acid-DTHFPCIKFEPRSKEWVCK-OH] |
| 20 nM | – | Isovaleryl-DTHFPCIKFEPRSKEWVCK-NH2 (disulfide 6-18 (inferred)) [Isovaleric acid-DTHFPCIKFEPRSKEWVCK-NH2] |
| – | 59 % at 1 uM | H-DTHFPCIIFAA-NH2 [Hy-DTHFPCIIFAA-NH2] |
| > 10000 nM | – | H-DTHFP[dC]IIFGPRSKGWVA[dC]-NH2 (disulfide 6-19 (inferred)) [Hy-DTHFP-[(D)Cys]-IIFGPRSKGWVA-[(D)Cys]-NH2] |
| > 1000 nM | – | H-ATHFPCIIF-NH2 [Hy-ATHFPCIIF-NH2] |
| > 10000 nM | – | H-DTHCPIAIF-NH2 [Hy-DTHCPIAIF-NH2] |
| 281 nM | – | B2 |
| 86 nM | – | Isovaleryl-DTHFPCKIFGPRSKGWVCK-NH2 (disulfide 6-18 (inferred)) [Isovaleric acid-DTHFPCKIFGPRSKGWVCK-NH2] |
| – | 45 % at 10 uM | H-DTHKPCIIF-NH2 [Hy-DTHKPCIIF-NH2] |
| > 10000 nM | – | B3 |
| > 10000 nM | – | H-DTHFPIICI-NH2 [Hy-DTHFPIICI-NH2] |
| 149 nM | – | H-DTHFPICIFGPHRSKGWVCM-NH2 (disulfide 7-19 (inferred)) [Hy-DTHFPICIFGPHRSKGWVCM-NH2] |
| > 1000 nM | – | Isovaleryl-DTHFPCRRFGPRSKGWVCK-NH2 (disulfide 6-18 (inferred)) [Isovaleric acid-DTHFPCRRFGPRSKGWVCK-NH2] |
| > 1000 nM | – | H-DTHFPRRFGPRSKGWVC-NH2 [Hy-DTHFPRRFGPRSKGWVC-NH2] |
| – | 39 % at 1 uM | H-DTHFPCLF-NH2 [Hy-DTHFPCLF-NH2] |

| Potency EC50 (nM), ferroportin-GFP internalization/degradation | Potency: percent at the stated concentration, ferroportin-GFP internalization/degradation | Binder |
| --- | --- | --- |
| > 1000 nM | – | [Ida]THF[β3hP]CRR[β3hF]GPRSKGWVC-NH2 (disulfide 6-18 (inferred)) [[IDA]-THF-[bhPro]-CRR-[bhPhe]GPRSKGWVC-NH2] |
| – | 8 % at 1 uM | H-DTHFPCIEY-NH2 [Hy-DTHFPCIEY-NH2] |
| 9 nM | – | Isovaleryl-DTHFPCIKFEPRSKLWVCK-NH2 (disulfide 6-18 (inferred)) [Isovaleric acid-DTHFPCIKFEPRSKLWVCK-NH2] |
| 197 nM | – | B4 |
| – | 50 % at 10 uM | H-DTHFVCIIF-NH2 [Hy-DTHFVCIIF-NH2] |
| 7 nM | – | Isovaleryl-DTHFPCIIFEPRSKLWVCK-NH2 (disulfide 6-18 (inferred)) [Isovaleric acid-DTHFPCIIFEPRSKLWVCK-NH2] |
| – | 9 % at 10 uM | H-DTHFPCKIF-NH2 [Hy-DTHFPCKIF-NH2] |
| 10 nM | – | B5 |
| 32 nM | – | Isovaleryl-DTHFPCIIFGPRSKG[NMeW]VC-NH2 (disulfide 6-18 (inferred)) [Isovaleric acid-DTHFPCIIFGPRSKG-[N-MeTrp]-VC-NH2] |
| – | 85 % at 1 uM | H-DTHFPCILY-NH2 [Hy-DTHFPCILY-NH2] |
| – | 64 % at 10 uM | H-DPHFPCIIF-NH2 [Hy-DPHFPCIIF-NH2] |
| 15 nM | – | Isovaleryl-DTHFPCIIFEPRSKHWVCK-NH2 (disulfide 6-18 (inferred)) [Isovaleric acid-DTHFPCIIFEPRSKHWVCK-NH2] |
| > 1000 nM | – | H-DTHFPCRIFGPRSRGWVCK-NH2 (disulfide 6-18 (inferred)) [Hy-DTHFPCRIFGPRSRGWVCK-NH2] |
| 28 nM | – | Isovaleryl-DTHFPCIKFEPHSK[Sar]CK-NH2 (not fully specified (bridges); cysteine pairing not given here) [Isovaleric acid-DTHFPCIKFEPHSK-[Sarc]-CK-NH2] |
| – | 75 % at 10 uM | H-DTHFPCIIY-NH2 [Hy-DTHFPCIIY-NH2] |
| 6400 nM | – | H-DTHFPCIIFKC-NH2 (disulfide 6-11 (inferred)) [Hy-DTHFPCIIFKC-NH2] |
| > 1000 nM | – | B6 |
| 163 nM | – | Isovaleryl-DTHFPCKIFGPRSKGWECK-NH2 (disulfide 6-18 (inferred)) [Isovaleric acid-DTHFPCKIFGPRSKGWECK-NH2] |
| > 10000 nM | – | H-DTHFPIAICI-NH2 [Hy-DTHFPIAICI-NH2] |
| – | 23 % at 1 uM | H-DTHFPCIIT-NH2 [Hy-DTHFPCIIT-NH2] |
| > 1000 nM | – | H-ADHFPCIIF-NH2 [Hy-ADHFPCIIF-NH2] |
| > 1000 nM | – | H-DTHFPCIFGPRSKGWVC-NH2 (disulfide 6-17 (inferred)) [Hy-DTHFPCIFGPRSKGWVC-NH2] |
